Experimental data as given in patent US20190024095A1.

Biological target: CD19 on Raji B cells (UniProt P15391)
Assay: cell-based or functional assay

UniProt P15391, sequence (P15391 20-556 limits assumed): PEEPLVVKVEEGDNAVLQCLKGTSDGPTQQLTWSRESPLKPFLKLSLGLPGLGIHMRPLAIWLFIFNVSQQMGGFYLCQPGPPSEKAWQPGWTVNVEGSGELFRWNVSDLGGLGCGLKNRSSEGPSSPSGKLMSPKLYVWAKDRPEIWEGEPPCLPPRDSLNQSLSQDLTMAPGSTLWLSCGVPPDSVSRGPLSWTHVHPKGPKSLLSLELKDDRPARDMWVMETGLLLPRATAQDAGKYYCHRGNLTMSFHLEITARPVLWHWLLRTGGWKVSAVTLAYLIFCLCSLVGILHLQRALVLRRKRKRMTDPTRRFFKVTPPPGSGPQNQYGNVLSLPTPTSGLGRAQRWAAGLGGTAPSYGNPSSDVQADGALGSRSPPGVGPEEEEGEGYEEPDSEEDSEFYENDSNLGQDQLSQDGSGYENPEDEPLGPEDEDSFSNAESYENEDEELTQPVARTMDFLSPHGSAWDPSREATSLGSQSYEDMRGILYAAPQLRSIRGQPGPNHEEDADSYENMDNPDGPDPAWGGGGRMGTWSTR

anti-CD19 CAR (anti-CD19 CAR cassette as described in WO 2012/079000), expressed on transduced T-cells
change in IL-12 expression (NFAT promoter, 3'-UTR not responsive to CAR stimulation): 50 fold | change in IL-12 expression (NFAT promoter, RDE1 (Gold1)): 168 fold | change in IL-12 expression (minP promoter, RDE1 (Gold1)): 6.3 fold | change in activated cells in the population (CD25, CD69; GFP-RDE1 bicistronic construct): 0.9 to 84.8% | change in activated cells in the population (CD25, CD69; GFP-RDE2.1 bicistronic construct): 3.9 to 12.1% | change in activated cells in the population (CD25, CD69; doubly transduced T-cells): 0.9 to 56.9% | change in activated cells in the population (CD25, CD69; singly transduced, bicistronic construct): 3.6 to 5.8% | increase in bioluminescence (MinP promoter, RDE1): 4.1 fold | increase in bioluminescence (MinP promoter, RDE2): 1.8 fold | increase in bioluminescence (MinP promoter, RDE3): 1.4 fold | increase in bioluminescence (NFAT promoter, RDE1): 8.5 fold | increase in bioluminescence (NFAT promoter, RDE2): 3.1 fold | increase in bioluminescence (NFAT promoter, RDE3): 1.3 fold | increase in fluorescence (GFP-RDE1): 6.5% | increase in fluorescence (GFP-RDE2, doubly transduced T-cells): 19.5 to 42.5%
